Paper PMC3524375

Molecular target: NADPH-cytochrome P450 reductase (UniProt P00388)
UniProt P00388, sequence (P00388 whole entry): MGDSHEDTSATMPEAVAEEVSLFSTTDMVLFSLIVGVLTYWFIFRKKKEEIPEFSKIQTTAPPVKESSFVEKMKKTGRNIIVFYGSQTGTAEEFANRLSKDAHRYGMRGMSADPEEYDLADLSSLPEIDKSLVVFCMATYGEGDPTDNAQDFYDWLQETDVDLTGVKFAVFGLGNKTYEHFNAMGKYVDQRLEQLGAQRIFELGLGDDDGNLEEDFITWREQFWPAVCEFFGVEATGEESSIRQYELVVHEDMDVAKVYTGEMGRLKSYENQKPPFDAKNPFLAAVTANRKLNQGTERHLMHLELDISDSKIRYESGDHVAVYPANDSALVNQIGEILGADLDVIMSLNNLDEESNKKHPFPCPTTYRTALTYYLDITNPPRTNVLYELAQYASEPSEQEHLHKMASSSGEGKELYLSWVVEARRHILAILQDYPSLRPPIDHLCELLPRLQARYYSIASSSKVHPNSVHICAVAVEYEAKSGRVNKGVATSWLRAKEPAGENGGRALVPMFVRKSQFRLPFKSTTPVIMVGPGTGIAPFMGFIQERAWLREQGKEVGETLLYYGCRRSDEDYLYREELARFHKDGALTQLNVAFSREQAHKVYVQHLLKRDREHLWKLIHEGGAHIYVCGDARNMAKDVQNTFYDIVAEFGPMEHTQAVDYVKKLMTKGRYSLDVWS

CYP3A4 Y430F mutant (from UniProt P08684 1-503) (enzyme)
% of CPR-dependent versus dithionite-dependent reduced P450-CO spectrum: 41%

human cytochrome P450 3A4, wild type, untreated (from UniProt P08684 1-503) (enzyme)
% of CPR-dependent versus dithionite-dependent reduced P450-CO spectrum: 88%

CYP3A4 Y430V mutant (from UniProt P08684 1-503) (enzyme)
% of CPR-dependent versus dithionite-dependent reduced P450-CO spectrum: 22%
